# Literature values in US20250326839A1, “TREATMENT OF DISEASES RELATED TO COLONY-STIMULATING FACTOR 1 RECEPTOR DYSFUNCTION USING TREM2 AGONISTS” (Vigil Neuroscience, Inc., priority 2020, published 2025).
# Positions count from the first letter of the chain named. In names and notes the source's numbering stands.
# B1: V15: 6E7 variant: VH T30A, I50T, Q99S; VL S53W, F94Y (antibody, V domains shown)
# VH: EVQLVQSGAEVKKPGESLKISCKGSGYSFASYWIAWVRQMPGKGLEWMGTIYPGDSDTRYSPSFQGQVTISADKSISTAYLQWSSLKASDTAMYFCARSRTFYYDSSDYFDYWGQGTLVTVSS
# VL: DIQMTQSPSSVSASVGDRVTITCRASQGISSWLAWYQQKPGKAPKLLIYAASWLQNGVPSRFSGSGSGTDFTLTISSLQPEDFATYFCQQADSYPRTFGQGTKLEIK
# B2: V16: 6E7 variant: VH F29M, S56G, Q99S; VL S53N (antibody, V domains shown)
# VH: B1 VH with F29M, A30T, T50I, S56G
# VL: B1 VL with W53N, Y94F
# B3: V17: 6E7 variant: VH T30G, Q99S; VL L54R, F94S (antibody, V domains shown)
# VH: B1 VH with A30G, T50I
# VL: B1 VL with W53S, L54R, Y94S
# B4: V24: 6E7 variant: VH T58V, Q99S; VL N56K, R96H (antibody, V domains shown)
# VH: B1 VH with A30T, T50I, T58V
# VL: B1 VL with W53S, N56K, Y94F, R96H
# B5: V25: 6E7 variant: VH T30G, I50L, Q99S; VL Q55A, F94M (antibody, V domains shown)
# VH: B1 VH with A30G, T50L
# VL: B1 VL with W53S, Q55A, Y94M
# B6: V26: 6E7 variant: VH A35G, I50T, F102M, Y112A; VL N56R, F94Y (antibody, V domains shown)
# VH: B1 VH with A30T, A35G, S99Q, F102M, Y112A
# VL: B1 VL with W53S, N56R
# B7: V27: 6E7 variant: VH S61A, Q99S; VL N56R (antibody, V domains shown)
# VH: B1 VH with A30T, T50I, S61A, A97V
# VL: B1 VL with W53S, N56R, Y94F
# B8: V28: 6E7 variant: VH T30Q, I50T, Y103F; VL N56S, F94L (antibody, V domains shown)
# VH: B1 VH with A30Q, S99Q, Y103F
# VL: B1 VL with W53S, N56S, Y94L
# B9: V36: 6E7 variant: VH I34L, Q99S; VL L54R, F94Y (antibody, V domains shown)
# VH: B1 VH with A30T, I34L, T50I
# VL: B1 VL with W53S, L54R
# B10: V37: 6E7 variant: VH F29H, Q65A, Q99S; VL N56W, F94Y (antibody, V domains shown)
# VH: B1 VH with F29H, A30T, T50I, Q65A
# VL: B1 VL with W53S, N56W
# B11: V38: 6E7 variant: VH T30G, T58V; VL L54R, F94H (antibody, V domains shown)
# VH: B1 VH with A30G, T50I, T58V, S99Q
# VL: B1 VL with W53S, L54R, Y94H
# B12: V39: 6E7 variant: VH T30G, S61N, Q99G; VL Q55V, F94S (antibody, V domains shown)
# VH: B1 VH with A30G, T50I, S61N, S99G
# VL: B1 VL with W53S, Q55V, Y94S
# B13: V40: 6E7 variant: VH T30G, T58V, F110S; VL N56L, S93R (antibody, V domains shown)
# VH: B1 VH with A30G, T50I, T58V, S99Q, F110S
# VL: B1 VL with W53S, N56L, S93R, Y94F
# B14: V48: 6E7 variant: VH T30G, T58V, Q99M; VL N56T, F94L (antibody, V domains shown)
# VH: B1 VH with A30G, T50I, T58V, S99M
# VL: B1 VL with W53S, N56T, Y94L
# B15: V49: 6E7 variant: VH T30N, I50T, Y60L, Q99S; VL L54R, F94Y (antibody, V domains shown)
# VH: B1 VH with A30N, Y60L
# VL: B1 VL with W53S, L54R
# B16: V50: 6E7 variant: VH T30G, I50V, F110L; VL L54R, F94L (antibody, V domains shown)
# VH: B1 VH with A30G, T50V, S99Q, F110L
# VL: B1 VL with W53S, L54R, Y94L
# B17: V51: 6E7 variant: VH T58V, Q99G, Y112N; VL L54R (antibody, V domains shown)
# VH: B1 VH with A30T, T50I, T58V, S99G, Y112N
# VL: B1 VL with W53S, L54R, Y94F
# B18: V52: 6E7 variant: VH T30E, Q99G; VL N56R, S93R (antibody, V domains shown)
# VH: B1 VH with A30E, T50I, S99G
# VL: B1 VL with W53S, N56R, S93R, Y94F
# B19: V60: 6E7 variant: VH S28H, T58V, F110S; VL N56R, Q89G (antibody, V domains shown)
# VH: B1 VH with S28H, A30T, T50I, T58V, S99Q, F110S
# VL: B1 VL with W53S, N56R, Q89G, Y94F
# Target: T1, TREM2 (Homo sapiens, UniProt Q9NZC2)
# T1 sequence (Q9NZC2 19-230): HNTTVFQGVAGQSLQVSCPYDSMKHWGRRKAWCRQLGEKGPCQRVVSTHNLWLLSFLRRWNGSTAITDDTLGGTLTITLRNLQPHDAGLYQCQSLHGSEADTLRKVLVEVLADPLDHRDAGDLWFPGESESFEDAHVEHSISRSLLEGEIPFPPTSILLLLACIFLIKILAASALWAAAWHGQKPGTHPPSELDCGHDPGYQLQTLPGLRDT
# Settings: 1st screen, 10 nM Ab concentration (values not marked *); cited from earlier work
row,Molecule,Binding Signal (fold over 6E7 parental antibody) 1st screen 110 nM or 10 nM
1,B1,5.23 fold over 6E7 parental antibod
2,B2,4.01 fold over 6E7 parental antibod
3,B3,5.37 fold over 6E7 parental antibod
4,B4,2.64 fold over 6E7 parental antibod
5,B5,4.23 fold over 6E7 parental antibod
6,B6,3.57 fold over 6E7 parental antibod
7,B7,5.50 fold over 6E7 parental antibod
8,B8,3.08 fold over 6E7 parental antibod
9,B9,3.38 fold over 6E7 parental antibod
10,B10,3.46 fold over 6E7 parental antibod
11,B11,4.34 fold over 6E7 parental antibod
12,B12,6.15 fold over 6E7 parental antibod
13,B13,4.48 fold over 6E7 parental antibod
14,B14,2.42 fold over 6E7 parental antibod
15,B15,6.51 fold over 6E7 parental antibod
16,B16,4.10 fold over 6E7 parental antibod
17,B17,2.81 fold over 6E7 parental antibod
18,B18,3.00 fold over 6E7 parental antibod
19,B19,3.26 fold over 6E7 parental antibod

# Same assay, conditions: 2nd screen, 2 nM; cited from earlier work
row,Molecule,Binding Signal (fold over 6E7 parental antibody) 2nd screen 2 nM
1,B1,4.72 fold over 6E7 parental antibod
2,B2,3.57 fold over 6E7 parental antibod
3,B3,4.22 fold over 6E7 parental antibod
4,B4,1.42 fold over 6E7 parental antibod
5,B5,3.15 fold over 6E7 parental antibod
6,B6,2.83 fold over 6E7 parental antibod
7,B7,5.67 fold over 6E7 parental antibod
8,B8,2.63 fold over 6E7 parental antibod
9,B9,4.00 fold over 6E7 parental antibod
10,B10,3.69 fold over 6E7 parental antibod
11,B11,3.44 fold over 6E7 parental antibod
12,B12,5.11 fold over 6E7 parental antibod
13,B13,3.41 fold over 6E7 parental antibod
14,B14,2.30 fold over 6E7 parental antibod
15,B15,5.02 fold over 6E7 parental antibod
16,B16,3.39 fold over 6E7 parental antibod
17,B17,1.83 fold over 6E7 parental antibod
18,B18,1.78 fold over 6E7 parental antibod
19,B19,3.35 fold over 6E7 parental antibod

# Same assay, conditions: 2nd screen, 10 nM; cited from earlier work
row,Molecule,Binding Signal (fold over 6E7 parental antibody) 2nd screen 10 nM
1,B1,4.78 fold over 6E7 parental antibod
2,B2,4.04 fold over 6E7 parental antibod
3,B3,5.51 fold over 6E7 parental antibod
4,B4,2.90 fold over 6E7 parental antibod
5,B5,4.70 fold over 6E7 parental antibod
6,B6,3.47 fold over 6E7 parental antibod
7,B7,5.69 fold over 6E7 parental antibod
8,B8,3.61 fold over 6E7 parental antibod
9,B9,3.44 fold over 6E7 parental antibod
10,B10,3.49 fold over 6E7 parental antibod
11,B11,4.36 fold over 6E7 parental antibod
12,B12,5.81 fold over 6E7 parental antibod
13,B13,4.16 fold over 6E7 parental antibod
14,B14,2.54 fold over 6E7 parental antibod
15,B15,6.58 fold over 6E7 parental antibod
16,B16,4.16 fold over 6E7 parental antibod
17,B17,3.18 fold over 6E7 parental antibod
18,B18,3.09 fold over 6E7 parental antibod
19,B19,3.63 fold over 6E7 parental antibod
